Data: the supplement of paper PMC5998384

Tests used:
HeLa Kyoto [1] = assay: solubility change mitosis vs G1/S (difference of NP-40 vs SDS log2 ratios) (log2 ratio difference); higher = more soluble in mitosis
HeLa Kyoto [2] = assay: solubility in G1/S (NP-40 vs SDS abundance) (log2 ratio); higher = more soluble; details: cell cycle stage: G1/S
HeLa Kyoto [3] = assay: melting temperature (median over replicates), in situ; higher = more thermally stable
HeLa Kyoto [4] = assay: thermal stability score vs G1/S (z-score of summed log2 fold changes over temperatures); higher = more thermally stable than in G1/S
[5] = cell cycle stage: early G1 (4.5 h after nocodazole release)
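Wherever melting temperature (median over replicates), in situ is given: HeLa Kyoto cells synchronized by double thymidine or nocodazole block, proteins quantified by TMT10plex mass spectrometry, three independent biological replicates.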
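Wherever solubility change mitosis vs G1/S (difference of NP-40 vs SDS log2 ratios) is given: synchronized HeLa Kyoto cells (double thymidine block for G1/S, nocodazole release for mitosis), protein amounts in NP-40 versus SDS lysates quantified by mass spectrometry, three biological replicates.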
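Wherever solubility in G1/S (NP-40 vs SDS abundance) is given: HeLa Kyoto cells arrested at G1/S by double thymidine block, proteins quantified by TMT10plex mass spectrometry in mild NP-40 versus SDS extracts, three biological replicates.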
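Wherever thermal stability score vs G1/S (z-score of summed log2 fold changes over temperatures) is given: synchronized HeLa Kyoto cells, proteins quantified by TMT10plex mass spectrometry, three biological replicates, mitosis taken 0.5 h after nocodazole release, G1/S directly after double thymidine block.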

Sequence | solubility change mitosis (log2) (HeLa Kyoto [1]) | solubility in G1/S (log2) (HeLa Kyoto [2]) | melting temperature (HeLa Kyoto [3]; cell cycle stage: G1/S) [°C] | melting temperature (HeLa Kyoto [3]; cell cycle stage: mitosis) [°C] | thermal stability score (HeLa Kyoto [4]; [5]) | thermal stability score (HeLa Kyoto [4]; cell cycle stage: mitosis)
MAAESGSDFQQRRRRRRDPEEPEKTELSERELAVAVAVSQENDEENEERWVGPLPVEATLAKKRKVLEFERVYLDNLPSASMYERSYMHRDVITHVVCTKTDFIITASHDGHVKFWKKIEEGIEFVKHFRSHLGVIESIAVSSEGALFCSVGDDKAMKVFDVVNFDMINMLKLGYFPGQCEWIYCPGDAISSVAASEKSTGKIFIYDGRGDNQPLHIFDKLHTSPLTQIRLNPVYKAVVSSDKSGMIEYWTGPPHEYKFPKNVNWEYKTDTDLYEFAKCKAYPTSVCFSPDGKKIATIGSDRKVRIFRFVTGKLMRVFDESLSMFTELQQMRQQLPDMEFGRRMAVERELEKVDAVRLINIVFDETGHFVLYGTMLGIKVINVETNRCVRILGKQENIRVMQLALFQGIAKKHRAATTIEMKASENPVLQNIQADPTIVCTSFKKNRFYMFTKREPEDTKSADSDRDVFNEKPSKEEVMAATQAEGPKRVSDSAIIHTSMGDIHTKLFPVECPKTVENFCVHSRNGYYNGHTFHRIIKGFMIQTGDPTGTGMGGESIWGGEFEDEFHSTLRHDRPYTLSMANAGSNTNGSQFFITVVPTPWLDNKHTVFGRVTKGMEVVQRISNVKVNPKTDKPYEDVSIINITVK [PPWD1] | -0.0306 | -0.381 | 49.7 | 49.8 | 0.382 | 0.58
MAAETLLSSLLGLLLLGLLLPASLTGGVGSLNLEELSEMRYGIEILPLPVMGGQSQSSDVVIVSSKYKQRYECRLPAGAIHFQREREEETPAYQGPGIPELLSPMRDAPCLLKTKDWWTYEFCYGRHIQQYHMEDSEIKGEVLYLGYYQSAFDWDDETAKASKQHRLKRYHSQTYGNGSKCDLNGRPREAEVRFLCDEGAGISGDYIDRVDEPLSCSYVLTIRTPRLCPHPLLRPPPSAAPQAILCHPSLQPEEYMAYVQRQADSKQYGDKIIEELQDLGPQVWSETKSGVAPQKMAGASPTKDDSKDSDFWKMLNEPEDQAPGGEEVPAEEQDPSPEAADSASGAPNDFQNNVQVKVIRSPADLIRFIEELKGGTKKGKPNIGQEQPVDDAAEVPQREPEKERGDPERQREMEEEEDEDEDEDEDEDERQLLGEFEKELEGILLPSDRDRLRSEVKAGMERELENIIQETEKELDPDGLKKESERDRAMLALTSTLNKLIKRLEEKQSPELVKKHKKKRVVPKKPPPSPQPTEEDPEHRVRVRVTKLRLGGPNQDLTVLEMKRENPQLKQIEGLVKELLEREGLTAAGKIEIKIVRPWAEGTEEGARWLTDEDTRNLKEIFFNILVPGAEEAQKERQRQKELESNYRRVWGSPGGEGTGDLDEFDF [OS9] | -0.128 | 0.241 | 54.4 | 53.8 | 0.21 | -0.468
MAAETQTLNFGPEWLRALSSGGSITSPPLSPALPKYKLADYRYGREEMLALFLKDNKIPSDLLDKEFLPILQEEPLPPLALVPFTEEEQRNFSMSVNSAAVLRLTGRGGGGTVVGAPRGRSSSRGRGRGRGECGFYQRSFDEVEGVFGRGGGREMHRSQSWEERGDRRFEKPGRKDVGRPNFEEGGPTSVGRKHEFIRSESENWRIFREEQNGEDEDGGWRLAGSRRDGERWRPHSPDGPRSAGWREHMERRRRFEFDFRDRDDERGYRRVRSGSGSIDDDRDSLPEWCLEDAEEEMGTFDSSGAFLSLKKVQKEPIPEEQEMDFRPVDEGEECSDSEGSHNEEAKEPDKTNKKEGEKTDRVGVEASEETPQTSSSSARPGTPSDHQSQEASQFERKDEPKTEQTEKAEEETRMENSLPAKVPSRGDEMVADVQQPLSQIPSDTASPLLILPPPVPNPSPTLRPVETPVVGAPGMGSVSTEPDDEEGLKHLEQQAEKMVAYLQDSALDDERLASKLQEHRAKGVSIPLMHEAMQKWYYKDPQGEIQGPFNNQEMAEWFQAGYFTMSLLVKRACDESFQPLGDIMKMWGRVPFSPGPAPPPHMGELDQERLTRQQELTALYQMQHLQYQQFLIQQQYAQVLAQQQKAALSSQQQQQLALLLQQFQTLKMRISDQNIIPSVTRSVSVPDTGSIWELQPTASQPTVWEGGSVWDLPLDTTTPGPALEQLQQLEKAKAAKLEQERREAEMRAKREEEERKRQEELRRQQEEILRRQQEEERKRREEEELARRKQEEALRRQREQEIALRRQREEEERQQQEEALRRLEERRREEEERRKQEELLRKQEEEAAKWAREEEEAQRRLEENRLRMEEEAARLRHEEEERKRKELEVQRQKELMRQRQQQQEALRRLQQQQQQQQLAQMKLPSSSTWGQQSNTTACQSQATLSLAEIQKLEEERERQLREEQRRQQRELMKALQQQQQQQQQKLSGWGNVSKPSGTTKSLLEIQQEEARQMQKQQQQQQQHQQPNRARNNTHSNLHTSIGNSVWGSINTGPPNQWASDLVSSIWSNADTKNSNMGFWDDAVKEVGPRNSTNKNKNNASLSKSVGVSNRQNKKVEEEEKLLKLFQGVNKAQDGFTQWCEQMLHALNTANNLDVPTFVSFLKEVESPYEVHDYIRAYLGDTSEAKEFAKQFLERRAKQKANQQRQQQQLPQQQQQQPPQQPPQQPQQQDSVWGMNHSTLHSVFQTNQSNNQQSNFEAVQSGKKKKKQKMVRADPSLLGFSVNASSERLNMGEIETLDDY [GIGYF2] | -0.00842 | -0.0985 | 49.4 | 49.8 | 0.406 | 0.959
